Experimental data reported in US6258776A, “Calcium-regulated kinase” (priority 1997, dated 2001).

Experiments:
[1] = tested on: S100 proteins, including S100B; conditions: cited from earlier work
[2] = tested on: M960618 melanoma cells (Ndr activity); test: W-7 effect on Ndr activity in S100B-positive melanoma cells; type: cell-based; conditions: Homo sapiens, 1.25 h; read-out: reduction of Ndr activity
S100B-Ndr = test: inhibition of binding of S100B to Ndr
PP2A = conditions: concentrations used in cells (okadaic acid 1 μM, cyclosporin A 1 μM); cited from earlier work
HA-Ndr = test: in vitro incubation of immunoprecipitated HA-Ndr with PP2A; type: biochemical; conditions: PP2A plus 100 nM okadaic acid
Description: In order to provide evidence that PP2A directly interacts with and thereby affects Ndr activity, HA-Ndr is immunoprecipitated from cells treated with 20 μM A23187 or with solvent alone for 5 min. In parallel, HA-Ndr is immunoprecipitated from cells treated with 1 μM okadaic acid or solvent alone ("Control") for 1 h. Each immunoprecipitate is then incubated in vitro for 1 h with either buffer alone, with purified PP2A (dimeric form consisting of catalytic subunit and 65 kDa regulatory subunit) or with PP2A plus 100 nM okadaic acid. Thereafter, the immunoprecipitates are washed and assayed for Ndr peptide kinase activity as described in Example 5.

[3] = tested on: protein phosphatase 1 (PP1); conditions: concentrations used in cells; cited from earlier work
HA-Ndr WT = conditions: 1 μM, 1 h
Description: COS-1 cells expressing HA-Ndr WT (as in Example 5) are treated either with solvent alone (Control) or with a panel of cell permeable protein phosphatase inhibitors. The cells are then extracted, HA-Ndr is immunoprecipitated with the anti-HA mAb 12CA5, and the kinase activity of Ndr measured as before, using the peptide substrate.

Ndr = Ndr activity in cell lines with and without S100B expression; type: cell-based, human; conditions: p<0.05, two-tailed Students' t test
Description: COS cells are transfected with pECE-Ndr or with empty vector (pECE). 20 μg of these extracts are immunoprecipitated with anti-Ndr (which has been covalently cross-linked to protein A-Sepharose using dimethyl pimelimidate). 400 μg of extract from HeLa cells is immunoprecipitated in parallel. The immunoprecipitates are separated by SDS-PAGE and then immunoblotted using biotinylated anti-Ndr and streptavidin-peroxidase. […] A band of ~53 kDa is also present in HeLa and COS-1 cells and probably represents a proteolytic fragment of full-length Ndr.
Using the method described above, the 12 cell lines are analysed for Ndr abundance. The amount of Ndr (in ng per 400 μg cell extract) is quantitated by densitometry of the blots, and comparison with blots containing known amounts of GST-Ndr. The same cell lines are also assayed for the presence or absence of S100B, by immunoprecipitation of cell extracts with anti-S100B, followed by immunoblotting of the precipitates.

GST-Ndr [4] = target: T1, GST-Ndr (Homo sapiens, UniProt Q15208); test: preincubation of immobilised GST-Ndr followed by peptide kinase assay; type: biochemical
T1 construct: made in house
T1 sequence (Q15208 whole entry): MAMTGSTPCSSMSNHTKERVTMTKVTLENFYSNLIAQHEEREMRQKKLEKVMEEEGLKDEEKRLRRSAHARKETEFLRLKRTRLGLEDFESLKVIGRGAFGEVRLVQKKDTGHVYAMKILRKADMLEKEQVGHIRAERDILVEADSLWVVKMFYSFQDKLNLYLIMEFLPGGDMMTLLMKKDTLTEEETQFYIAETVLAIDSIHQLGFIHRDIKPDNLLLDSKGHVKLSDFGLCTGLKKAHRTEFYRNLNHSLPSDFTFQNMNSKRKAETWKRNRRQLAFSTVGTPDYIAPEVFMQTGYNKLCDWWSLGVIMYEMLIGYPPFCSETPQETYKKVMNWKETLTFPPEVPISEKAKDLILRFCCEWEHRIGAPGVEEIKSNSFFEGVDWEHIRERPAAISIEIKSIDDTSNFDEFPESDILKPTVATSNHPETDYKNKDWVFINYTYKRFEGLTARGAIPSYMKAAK
Description: Activation of Ndr by S100B appears to be independent of kinase autophosphorylation. However, increased autophosphorylation is observed: GST-Ndr is immobilised on agarose and preincubated with or without Ca^2+ -S100B, in the presence or absence of Mg-ATP (to either allow or not allow autophosphorylation). The agarose beads are then washed and assayed for Ndr activity as set out herein with radiolabelled ATP and peptide substrate, and in the presence or absence of Ca^2+ -S100B. Preincubation of GST-Ndr with Mg-ATP alone increases its peptide kinase activity, showing that autophosphorylation activates Ndr. […] Preincubation with Ca^2+ S100B alone has no effect, because activation by Ca^2+ -S100B in the preincubation step is mediated by Ndr autophosphorylation.
Ca^2+ -S100B increases the rate Ndr autophosphorylation by 2.5-fold, and it increases autophosphorylation-dependent Ndr activation by 2-fold. However, the total activation of Ndr by Ca^2+ -S100B is larger than this (5- to 10-fold). Thus, the increased autophosphorylation of Ndr caused by Ca^2+ -S100B is not by itself sufficient to account for Ndr activation. In addition, Ca^2+ -S100B probably stimulates Ndr kinase activity directly, in an autophosphorylation-independent manner.

Ndr Δ1-84 = test: immune complex kinase assay with S100B and Ca^2+, Ndr lacking amino terminal domain; type: biochemical, human
Description: (§1) In immune complex kinase assays and autophosphorylation assays (see below), COS-1 cells are transfected as described above or with pECE-Ndr-K118A. After 72 h, cells are washed with ice-cold PBS and lysed in lysis buffer (20 mM Tris-HCl pH 8.0, 150 mM NaCl, 1% (v/v) NP-40, 10% (v/v) glycerol, 5 mM EDTA, 0.5 mM EGTA, 0.5 mM phenylmethyl-sulfonyl fluoride, 4 μM leupeptin, 1 mM benzamidine, 1 μM microcystin and 1 mM Na3 VO4). Lysates are centrifuged at 14,000 g for 20 min. Duplicate aliquots of supernatant (250 μg, 2.5 mg/ml) are incubated for 2 h at 0° C. with 10 μg/ml Ab^1-465. Immune complexes are precipitated by addition of 2 μl protein A-Sepharose (Pharmacia) and mixing for 1 h. The beads are then washed twice with lysis buffer, once with lysis buffer containing 1 M NaCl, with lysis buffer again, and finally twice with 20 mM Tris-HCl pH 7.5. Beads are resuspended in 30 μl buffer containing 20 mM Tris-HCl pH 7.5, 10 mM MgCl2, 100 μM CaCl2, 1 mM dithiothreitol, 100 μM [γ-^32 P] ATP (0.5 μCi/μls), 1 mM Ndr substrate peptide ([…], SEQ. ID. No. 1), 1 μM cAMP-dependent protein kinase inhibitor peptide (PKI; purchased from Bachem, Bubendorf, Swit zerland), 4 μM leupeptin, 1 mM benzamidine, 1 μM microcystin and, in some assays, 20 μM bovine S100B. After 60 min at 30° C., phosphate incorporation into the peptide is quantitated as described above. […]

GST-Ndr [5] = target: T1, GST-Ndr; test: GST-Ndr peptide kinase assay with calcium-binding proteins; type: biochemical
Description: 1 μg GST-Ndr WT or GST-Ndr K118A, either in solution or immobilised on glutathione-agarose beads, is assayed in a 20 μl reaction containing 20 mM Tris-HCl pH 7.5, 5 mM MgCl2, 1 mM dithiothreitol, 100 μM [γ-^32 P] […] Reactions are supplemented with either 2 mM EGTA or various concentrations of CaCl2. Bovine CaM, bovine S100B (both from Sigma) or recombinant calcium-binding proteins. After incubation at 30° C. for 60 min, aliquots of the reaction are spotted on to P81 phosphocellulose paper and counted as above.
In brief, coding regions are cloned into the PGEMEX expression vector (Promega) and resultant plasmids used to transform E. coli BL-21 LysS cells. After induction, S100 proteins are purified by ammonium sulphate precipitation followed by Ca^2+ -dependent phenyl-Sepharose chromatography.
The proteins are added together with Ca^2+ into GST-N dr peptide kinase assays. The proteins tested comprised S100A1 (S100α), S100A2 (S100L), S100A4 (CAPL), S100A6 (calcyclin) and S100B (S100β); α-parvalbumin is included as a negative control.
In order to estimate the binding affinity of S100B for Ndr, kinase assays are performed in which GST-Ndr is mixed with various concentrations of purified bovine S100B homodimer, in the presence or absence of calcium.
To determine whether activation of Ndr by S100B occurs at physiological Ca^2+ concentrations, Ndr activity is assayed with or without added S100B over a range of Ca^2+ concentrations.

wild-type Ndr = test: immune complex kinase assay with S100B and Ca^2+, wild-type Ndr; type: biochemical, human; conditions: Ca^2+ -S100B
Description: as §1

GST-Ndr [6] = target: T1, GST-Ndr; test: Ndr autophosphorylation assay; type: biochemical
Description: In immune complex kinase assays and autophosphorylation assays (see below), COS-1 cells are transfected as described above or with pECE-Ndr-K118A. After 72 h, cells are washed with ice-cold PBS and lysed in lysis buffer (20 mM Tris-HCl pH 8.0, 150 mM NaCl, 1% (v/v) NP-40, 10% (v/v) glycerol, 5 mM EDTA, 0.5 mM EGTA, 0.5 mM phenylmethyl-sulfonyl fluoride, 4 μM leupeptin, 1 mM benzamidine, 1 μM microcystin and 1 mM Na3 VO4). Lysates are centrifuged at 14,000 g for 20 min. Duplicate aliquots of supernatant (250 μg, 2.5 mg/ml) are incubated for 2 h at 0° C. with 10 μg/ml Ab^1-465. Immune complexes are precipitated by addition of 2 μl protein A-Sepharose (Pharmacia) and mixing for 1 h. The beads are then washed twice with lysis buffer, once with lysis buffer containing 1 M NaCl, with lysis buffer again, and finally twice with 20 mM Tris-HCl pH 7.5. […] After 60 min at 30° C., phosphate incorporation into the peptide is quantitated as described above.
The proteins are added together with Ca^2+ into GST-N dr peptide kinase assays. […] The increased kinase activity observed in the presence of S100A1 and S100B is not due to contaminating kinase activity, because no activity is recorded when kinase-negative GST-Ndr, containing a point mutation (Lys^118→Ala) in the ATP binding pocket, is used in place of wild-type GST-Ndr. […]

Ndr Δ65-81 = test: immune complex kinase assay with S100B and Ca^2+, Ndr deletion of amino acids 65-81; type: biochemical, human
Description: as §1

NCCCCCCNS(=O)(=O)c1cccc2c(Cl)cccc12 [W-7]
binding to S100 proteins [1]: binds to several S100 proteins, including S100B, in a Ca^2+ -dependent manner
inhibition at 50 µM [2]: ~80%

KRLRRSAHARKETEFLRLKRTRLGL [SEQ ID No.32]
inhibition of binding of S100B to Ndr (S100B-Ndr): effectively inhibit binding of S100B to Ndr

C=C1[C@@H](O)[C@@H]2O[C@]3(CC[C@H](/C=C/[C@@H](C)[C@@H]4CC(C)=C[C@@]5(O[C@H](C[C@@](C)(O)C(=O)O)CC[C@H]5O)O4)O3)CC[C@H]2O[C@@H]1[C@@H](O)C[C@H](C)[C@H]1O[C@@]2(CCCCO2)CC[C@H]1C [okadaic acid]
inhibition of intracellular PP2A (PP2A): completely inhibits intracellular PP2A
prevention of inactivation of HA-Ndr by PP2A (HA-Ndr): inactivation is prevented
effect on PP1 [3]: does not affect protein phosphatase 1 (PP1)
activation of Ndr (HA-Ndr WT): ~ 8 fold

B1: S100B: EF hand calcium-binding protein of the S100 family; bovine S100B homodimer or recombinant (protein, UniProt P02638 2-92, looked up)
Protein S100-B: SELEKAVVALIDVFHQYSGREGDKHKLKKSELKELINNELSHFLEEIKEQEVVDKVMETLDSDGDGECDFQEFMAFVAMITTACHEFFEHE
Ndr average specific activity, S100B-positive versus S100B-negative cell lines (Ndr): ~ 2 fold
increase in autophosphorylation-dependent Ndr activation (GST-Ndr [4]; Ca^2+ -S100B): 2 fold
peptide kinase activity after preincubation (GST-Ndr [4]; preincubation with Ca^2+ -S100B alone): no effect
peptide kinase activity after preincubation (GST-Ndr [4]; preincubation with Mg-ATP and Ca^2+ -S100B): even greater autoactivation of the peptide kinase activity
response to S100B (Ndr Δ1-84): failed to respond to S100B
maximal activation of Ndr (GST-Ndr [5]; 2 mM EGTA, without calcium): much lower
activation of Ndr in the absence of calcium (GST-Ndr [5]; absence of calcium): partial activation of Ndr in the absence of calcium
increase in Ndr kinase activity (GST-Ndr [5]; added together with Ca^2+, 60 min, 30° C.): 5-6 fold
maximal activation of Ndr (GST-Ndr [5]; presence of calcium, bovine S100B homodimer): ~ 7 fold
degree of activation of immunoprecipitated Ndr (wild-type Ndr): ~ 2 fold
Ndr autophosphorylation (GST-Ndr [6]): stimulated Ndr autophosphorylation
increase in rate of Ndr autophosphorylation (GST-Ndr [6]; Ca^2+ -S100B): 2.5 fold
sensitivity to S100B (Ndr Δ65-81): ablated its sensitivity to S100B
